Assay: yeast display, Sf9 membrane polyspecificity reagent, FACS + sequencing; frameworks hold sequencing errors
Procedure, shortened: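 A nanobody's polyreactivity label depends on the gate it was sorted from. Yeast display cells were stained with 10% biotinylated, detergent-solubilized Sf9 membrane reagent for 1 hour at 4 °C, enriched on streptavidin microbeads and sorted by FACS. The low and high (top ~1%) gates were set on anti-HA fluorescence for expression and streptavidin fluorescence for reagent binding.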
In the case of “QDQLVESGGGLVQAGGSLRLSCAASGSIFSKNTMGWYRQAPGKERELVAAISGSGVSTYYADSVKGRFTISRDNAKNTVYLQMNSLKPEDTAVYYCAAGPRFRYYSGWYDYWGQGTQVTVSS”, the “polyreactivity (PSR sort gate)” value is reported as “high polyreactivity”.
With “QDQLVESGGGLVQAGGSLRLSCAASGSIFSNYAMGWYRQAPGKERELVATITSAGSTYYADSVKGRFTISRDNAKNTVYLQLNSLKPEDTAVYYCAALYLGSYDYYDDMDYWGQGTQVTVSS” the “polyreactivity (PSR sort gate)” value was “low polyreactivity”.
With “QDQLVESGGGLVQAGGSLRLSCAASGSIFSSNAMGWYRQAPGKERELVAAINKSGGRTYYADSVKGRFTISRDNAKNTVYLQMNSLKPEDTAVYYCNKYGLASGLDYWGQGTQVTVSS” the “polyreactivity (PSR sort gate)” value was “high polyreactivity”.
For “QDQLVESGGGLVQAGGSLRLSCAASGSIFTSNAMGWYRQAPGKERELVAVITGSTGRTHYADSVKGRFTISRDNAKNTVYLQMNSLKPEDTAVYYCAAGLTFVTNFDYWGQGTQVTVSS”, the “polyreactivity (PSR sort gate)” value was “low polyreactivity”.
In the case of “QDQLVESGGGLVQAGGSLRLSCAASGSIFYWYAMGWYRQAPGKERELVAAISKSGGSTYYADSVKGRFTISRDTAKNTVYLQMNSLKPEDTAVYYCAARYLYQGYRFDYWGQGTQVTVSS”, the “polyreactivity (PSR sort gate)” value is reported as “high polyreactivity”.
With “QDQLVESGGGLVQAGGSLRLSCAASGSNFVINAMGWYRQAPGKERELVAAISYSGTGTYYADSVKGRFTISRDNAKNTVYLQMNSLKPEDTAVYYCAGDYYYRYRIYDYWGQGTQVTVSS” the “polyreactivity (PSR sort gate)” value was “low polyreactivity”.
In the case of “QDQLVESGGGLVQAGGSLRLSCAASGSTFNAYAMGWYRQAPGKERELVADISISGGTYYADSVKGRFTISRDNAKNTVYLQMNSLKPEDTAVYYCAAKPSWHGVYYWGQGTQVTVSS”, the “polyreactivity (PSR sort gate)” value is reported as “low polyreactivity”.
For “QDQLVESGGGLVQAGGSLRLSCAASGSTFRWYAMGWYRQAPGKERELVAAIRRIGSRTYADSVKGRFTISRDNAKNTVYLQMNSLKPEDTAVYYCATRYKYTGYDYWGQGTQVTVTS”, the “polyreactivity (PSR sort gate)” value was “high polyreactivity”.
For “QDQLVESGGGLVQAGGSLRLSCAASGSTFSNYAMGWYRQAPGKERELVASISQSGGSTYYADSVKGRFTISRDNAKNTVYLQMNSLKPEDTAVYYCAADVAQVGYQVGVSEIYPGYEYWGQGTQVTVSS”, the “polyreactivity (PSR sort gate)” value was “low polyreactivity”.
For “QDQLVESGGGLVQAGGSLRLSCAASGSTFSVYAMGWYRRAPGKERELVATIRGRGGSTSYADSVKGRFTISRDNAKNTVYLQMNSLKPEDTAVYYCAARVVRDWASKRIILALSNYVYWGQGTHVTVSS”, the “polyreactivity (PSR sort gate)” value was “high polyreactivity”.
With “QDQLVESGGGLVQAGGSLRLSCAASGSTFTTNVMGWYRQAPGKERELVAAISWSSGSTYYADSVKGRFTISRDNAKNTDYLQMNSLKPEDTAVYYCAARLVIFYPYSRYYYWGQGTQVTVSS” the “polyreactivity (PSR sort gate)” value was “high polyreactivity”.
With “QDQLVESGGGLVQAGGSLRLSCAASGSTFTYNTKGWYRQAPGKERELVAAITTSGGNTYYADSVKGRFTISRDNAKNTVYLQMNSLKPVDTAVYYCAAGYSWAEGDYWGQGTQVTVSS” the “polyreactivity (PSR sort gate)” value was “low polyreactivity”.
With “QDQLVESGGGLVQAGGSLRLSCAASGSTFVENAMGWYRQAPGKERELVAAISSSGDSTFYADSVKGRFTISRDNAKNTVYLQMNSLKPEDTAVYYCNTPLLKRTTRGRERNYWGQGTQVTVSS” the “polyreactivity (PSR sort gate)” value was “low polyreactivity”.
In the case of “QDQLVESGGGLVQAGGSLRLSCAASGSTFVKYAMGWYRQAPGKERELVAAITKGGGSTYYADSVKGRFTISRDNAKNTVYLQMNSLKPEDTAVYYCNTSPHYRYGMDYWGQGTQVTVSS”, the “polyreactivity (PSR sort gate)” value is reported as “high polyreactivity”.
For “QDQLVESGGGLVQAGGSLRLSCAASGSTFWANAMGWYRQAPGKEWELDARITYSGGSTYYADSVKGRFTISRDYAKNTVYLQMNSLKPEDTAVYYCAAEHYLCYDYWGQGTQVTVSS”, the “polyreactivity (PSR sort gate)” value was “low polyreactivity”.
For “QDQLVESGGGLVQAGGSLRLSCAASGSTFYNYAMAWYRQAPGKEREFVAAISSGGGITYYADSVKGRFTISRDNAKNTVFLQMISLIPEDTAVYYCNAKMISGISTADSRSRIYDYWGHGTQVTVSS”, the “polyreactivity (PSR sort gate)” value was “high polyreactivity”.
In the case of “QDQLVESGGGLVQAGGSLRLSCAASGSTLAGYAMGWYRLAPGKVRELVAAIDWTGGSTTYADSVKGRFTISRDNAKNTVYLQMNSLKPEDTAVYYCNVDLGVNGDYWGQGTQVTVSS”, the “polyreactivity (PSR sort gate)” value is reported as “low polyreactivity”.
For “QDQLVESGGGLVQAGGSLRLSCAASGSTLDGNAMGWYRQAPGKERELVAGIDTGGSTYYADSVKGRFTISRDNAKNTVYLQMNSLKPEDTAVYYCAATDREDYDYWGQGTQVTVSS”, the “polyreactivity (PSR sort gate)” value was “low polyreactivity”.
For “QDQLVESGGGLVQAGGSLRLSCAASGSTLEYKAIGRYRQAPGQERELVAVINRSDGSTYYADSVKGRFTISRDNAKNTVYLQMNSLKPEDTEVYYCADDRHQVSGISTEDYWGQGTQVTVSS”, the “polyreactivity (PSR sort gate)” value was “low polyreactivity”.
In the case of “QDQLVESGGGLVQAGGSLRLSCAASGSTLFYAMGWYRQAPGKERELVAAISWSGGSTRYADSVKGRFTISRDNAKNTVYLQMNSLKPEDTAVYYCNRDPDTWGYQPDWYYGAYDYWGQGTQVTVSS”, the “polyreactivity (PSR sort gate)” value is reported as “low polyreactivity”.
In the case of “QDQLVESGGGLVQAGGSLRLSCAASGSTLTRNAMGWYRQAPGKERELVAAITSGGRTKYADSVKGRFTISRDNAKNTVYLQMNSLKPEDTAVYYCAKGGPPGQRGYDYWGQGTQVTVSS”, the “polyreactivity (PSR sort gate)” value is reported as “high polyreactivity”.
With “QDQLVESGGGLVQAGGSLRLSCAASGSTRIYAMGWYRRAPRKEMELVAAISWTGGRTYYADSVKGRFTISRDNAKIIVYLQMNSLKPEYTAVYYCAAQYFTFYWKLDYWGQGTQVTVSS” the “polyreactivity (PSR sort gate)” value was “high polyreactivity”.
With “QDQLVESGGGLVQAGGSLRLSCAASGSTSRTYAMGWYRQAPGKERELVAAINSGGTTYYADSVKGRFTISRDNAKNTVYLQMNSLKPEDTAVYYCARRDFWWSLRIFGYWGQGTQVTVSS” the “polyreactivity (PSR sort gate)” value was “high polyreactivity”.
With “QDQLVESGGGLVQAGGSLRLSCAASGSTVSYYTMGWYRQAPGKERELVAAINGSGGSTYYADSVKGRFTISRDNAKNNVYLQMNSMKPEDTAVYYCAADIKRVLDIPMYYWGQGTQVTVSS” the “polyreactivity (PSR sort gate)” value was “low polyreactivity”.
For “QDQLVESGGGLVQAGGSLRLSCAASGYIFGIYAMGWYRQAPGKERELVAAISSDSTYYADSVKGRFTISRDNAKNTVYLQMNRQKPEDTAVYYCAAYWFNQDYEFEYWGHGTQVTVSS”, the “polyreactivity (PSR sort gate)” value was “high polyreactivity”.
With “QDQLVESGGGLVQAGGSLRLSCAASGYIFRIYAMGWYRQAPGKERELVATITNGGSTHYADSVKGRFTISRDNAKNTVYLQMNSLKPEDTAVYYCAADLLYSEYDYWGQGTQVTVSS” the “polyreactivity (PSR sort gate)” value was “high polyreactivity”.
In the case of “QDQLVESGGGLVQAGGSLRLSCAASGYTFRYYAMGWYRQAPGKERELVARITGRAGSTYYADSVKGRFTISRDNAKNTVYLQMNSLKPEDTAVYYCAASIREGFYWGQGTQVTVSS”, the “polyreactivity (PSR sort gate)” value is reported as “high polyreactivity”.
With “QDQLVESGGGLVQAGGSLRLSCAASVFTFRYYAMGWYRQAPGKEREFVATISWSGGSTYYADSVKGRFTISRDNAKNTVYLQMNSLKPEDTAVYYCAAGRVGTTTLEFYYCGQGTQVTVSS” the “polyreactivity (PSR sort gate)” value was “high polyreactivity”.
For “QDQLVESGGGLVQAGGSLRLSCAASVRTCNSYAMGWYRQAPGKERELVADITSSGGSTYYADSVKGRVTISRDNAKNTVYVQMNSLKPEDTAVYYCAADGYTRLPTYLRVTHRSLDYCGQGTQVTVSS”, the “polyreactivity (PSR sort gate)” value was “low polyreactivity”.
In the case of “QDQLVESGGGLVQAGGSLRLSCAASVSIFGVNVMGWYRQAPGKERELVAAITSIGGRTYYADSVKGRFTISRDNAKITVYLQMNSLKPEETAVYYCNADYTGAEYDYWGQGTQVTVSS”, the “polyreactivity (PSR sort gate)” value is reported as “low polyreactivity”.
With “QDQLVESGGGLVQAGGSLRLSCAASYYAMGWYRQAPGKERELVASISSGGSTNYADSVKGRFTISRDNAKNTVYLQMNSLKPDDTAVYYCAAQYYATYGYWGQGTQVTVSS” the “polyreactivity (PSR sort gate)” value was “low polyreactivity”.
In the case of “QDQLVESGGGLVQAGGSLRLSCADSGYTFTSNDMGWYRQAPGKERELVAAITWSGGTTYYADSVKGRFTISRDNAKNNVYLQMNSLKPDDTAVYYCAAESTLPIIDRDDYWGQGTQVTVSS”, the “polyreactivity (PSR sort gate)” value is reported as “low polyreactivity”.
For “QDQLVESGGGLVQAGGSLRLSCAGCAYIFGRYAMGWYRQAPGKEMELVAAITQRGGRTYYPDSVKGRFTISRDNAKNTVYLQMNSLKPEDTAVYYCAALLYFFLYDYWGQGTQVTVSS”, the “polyreactivity (PSR sort gate)” value was “low polyreactivity”.
In the case of “QDQLVESGGGLVQAGGSLRLSCAGSGSILDGNAMLWYRQAPGKERELVAGISGDSGSTYYADSVKGRFTISRDNAKNTVYLQMNSLKPEDTAVDYCAVTWGARTDQWPLRVFVGHDYWGQGTQLTVSS”, the “polyreactivity (PSR sort gate)” value is reported as “low polyreactivity”.
In the case of “QDQLVESGGGLVQAGGSLRLSCDASGFILETNAMGWYRQAPGKERELVASITSSGSTYYADSVKGRFTISRDNAKNTVYLQMNSLKREVTAVYYCAARRYRSRGRTYGWFRYDYWGQGTQVTVSS”, the “polyreactivity (PSR sort gate)” value is reported as “high polyreactivity”.
For “QDQLVESGGGLVQAGGSLRLSCDASGSIFPIYAMGWYRQAPGKERELVAAINRSGGSTYYADSVKGRFTISRDNAKNTVYLQMNSLKPEDTAVYYCKADYGYHNQLFWGYYGWSSDHWGQGTQVTVSS”, the “polyreactivity (PSR sort gate)” value was “low polyreactivity”.
For “QDQLVESGGGLVQAGGSLRLTCAASGSTFTLYVMGWYRQAPGKARELVAAISRGDTTNYADSVKGRFTISRDNAKNTVYLQMNSLKPEDTAVYYCAATYPTFFYWSKVYERDYWGQGTQVTVSS”, the “polyreactivity (PSR sort gate)” value was “low polyreactivity”.
For “QDQLVESGGGLVQAGGSLRLTSAASGFKFEKNAMGWYRQSPGKERQLVARISRSGGSTYYADSVKGRFTISRDNAKNTVYLQMNSLKPEDTADYYCNCLHRSDSGYYYRYDYWGQGTQVTVSS”, the “polyreactivity (PSR sort gate)” value was “high polyreactivity”.
In the case of “QDQLVESGGGLVQAGGSLRVSCAASGSIFAWYAMGWYRQAPGKDRELVAVITRGGSTNYADSVKGRFTISRDNAKKTVYLQMNSLKPEDTAVYYCAAGSYYSWYPFDYWGQGTQVTVSS”, the “polyreactivity (PSR sort gate)” value is reported as “low polyreactivity”.
With “QDQLVESGGGLVQAGGSLRVSCAASGSVFLVNAMGWYRQAPGKERELVAIDGSGGSTYADSVKGRFTISRDNAKNTVYLQMNILKPEDTAVYYCAKDQEGPLYDYWGQGTQVTVSS” the “polyreactivity (PSR sort gate)” value was “low polyreactivity”.
For “QDQLVESGGGLVQAGGSLSLCCAASGFTFKLYAMGWYRQAAGKVREVVAAISSSGGRTYYADSVKGRFTISRDNAKNTVYLQMNSLKPEDTAVYYCNAVRTVNDYHYDYSGQGTQVTVSS”, the “polyreactivity (PSR sort gate)” value was “high polyreactivity”.
In the case of “QDQLVESGGGLVQAGGSLSLSCAASGRIFRGNAMGWYRQAPGKERELVASITWRGTSTYYADSVKGRFTISRDNAKNTVYLQMNSLKPEDTAVYYCAASLYSWGQGTEVTVSS”, the “polyreactivity (PSR sort gate)” value is reported as “high polyreactivity”.
For “QDQLVESGGGLVQAGGTLRLSCAASGRIFKSYAMGWYRQAPGKEREVVASISYTGGSTYYADSVKGRFTISRDNAKNTVYLEMNSLNPEDTAVYYFAAKRVRSAGSYGYWGQVTQVTVSS”, the “polyreactivity (PSR sort gate)” value was “low polyreactivity”.

From the nanobody polyreactivity screen of Harvey et al. (2022)
